Experimental data as given in patent US9120851B2, “Human antibodies to human angiopoietin-like protein 4” (Regeneron Pharmaceuticals, Inc., priority 2009, dated 2015).

T1: hANGPTL4(26-406)-His (Homo sapiens, UniProt Q9BY76)
T1 construct: purchased R&D Systems
T1 sequence (Q9BY76 26-406): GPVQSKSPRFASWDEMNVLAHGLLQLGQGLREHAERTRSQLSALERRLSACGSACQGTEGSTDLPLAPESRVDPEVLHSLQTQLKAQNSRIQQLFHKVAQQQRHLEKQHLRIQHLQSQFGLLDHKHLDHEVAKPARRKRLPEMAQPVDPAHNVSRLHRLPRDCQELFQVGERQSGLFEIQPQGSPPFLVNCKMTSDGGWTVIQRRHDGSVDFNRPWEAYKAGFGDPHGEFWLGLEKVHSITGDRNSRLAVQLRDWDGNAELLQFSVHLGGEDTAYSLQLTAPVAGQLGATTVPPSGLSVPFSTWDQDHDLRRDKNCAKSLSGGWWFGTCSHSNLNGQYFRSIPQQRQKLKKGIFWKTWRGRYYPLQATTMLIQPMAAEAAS

T2: bovine LPL (Bos taurus, UniProt P11151)
T2 sequence (P11151 29-478): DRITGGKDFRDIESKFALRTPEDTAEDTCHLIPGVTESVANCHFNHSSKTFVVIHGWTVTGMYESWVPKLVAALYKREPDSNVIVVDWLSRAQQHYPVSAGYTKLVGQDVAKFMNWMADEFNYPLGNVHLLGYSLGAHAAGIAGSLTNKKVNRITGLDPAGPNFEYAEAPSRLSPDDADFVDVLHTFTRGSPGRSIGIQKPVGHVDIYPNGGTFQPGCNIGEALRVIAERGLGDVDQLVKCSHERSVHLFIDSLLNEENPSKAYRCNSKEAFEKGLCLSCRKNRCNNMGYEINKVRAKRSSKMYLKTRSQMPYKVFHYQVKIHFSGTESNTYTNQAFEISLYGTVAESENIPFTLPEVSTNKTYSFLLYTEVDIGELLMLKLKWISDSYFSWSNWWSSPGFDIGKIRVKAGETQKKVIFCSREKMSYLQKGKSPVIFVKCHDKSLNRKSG


Tests used:
humanized ANGPTL4 mice = experiment: Serum TG, H4H268P2 and fenofibrate alone or in combination; assay type: in vivo, mouse
Protocol: The effects of the anti-ANGPTL4 antibody H4H268P2 and TG-reducing drug fenofibrate, each alone or in combination, on serum TG levels were evaluated in humanized ANGPTL4 mice. The mice were pre-bled 7 days before the experiment after 4 hours of fasting and put into 4 groups of six mice each. Groups 2 and 4 were administered with H4H268P2 at 10 mg/kg by subcutaneous injection on day 0 and groups 1 (control group) and 2 were placed on regular chow diet. Groups 3 and 4 received chow diet supplemented with 0.05% (w/w) of fenofibrate (the dosage level was determined experimentally in a pilot study). Serum was collected from a terminal bleed on day 7 after H4H268P2 and/or fenofibrate administration (after 4 hours of fasting) and analyzed by ADVIA® 1800 Chemistry System (Siemens).

C57BL/6 mice = experiment: In vivo effect of hANGPTL4-mFc on plasma lipid levels; set-up: species or system mouse
Protocol: hANGPTL4 was administered intravenously to C57BL/6 mice to determine the biological effect of hANGPTL4 on plasma lipid levels. Briefly, C57BL/6 mice were put into four groups of five animals and each group was administered with different amount of hANGPTL4-mFc protein (SEQ ID NO:480): 25 μg, 50 μg, 100 μg and 300 μg, per mouse. A control group received injections of PBS. hANGPTL4-mFc protein and PBS were administered by intravenous injection (i.v.) via tail vein. Mice were bled at 15 min, 30 min, 60 min and 120 min after delivery of hANGPTL4-mFc or PBS and plasma lipid levels were determined by ADVIA® 1650 Chemistry System (Siemens). Measurements of triglycerides, total cholesterol, low density lipoprotein (LDL), nonesterified fatty acids (NEFA-C) and high density lipoprotein (HDL) were determined for each dose group. […] Thus, the 25 μg dose of hANGPTL4-mFc was selected as a possible minimum dosage for analysis of inhibition of ANGPTL4-induced increase in serum triglyceride levels by selected anti-hANGPTL4 antibodies as described below.

hANGPTL4(26-148)-mFc [1] = molecular target: T3, hANGPTL4(26-148)-mFc (Homo sapiens, UniProt Q9BY76); experiment: BIACORE, full mAb or Fab over anti-mFc captured hANGPTL4(26-148)-mFc; assay type: binding
T3 construct: amino acid residues 26-148 of human ANGPTL4 fused in-line to mouse IgG2a (hANGPTL4-mFc)
Protocol: (§1) Briefly, various concentrations (3.125 nM-100 nM) of anti-hANGPTL4 antibodies (i.e., H1H268 Fab, entire H1H268 mAb, H1H284 Fab, and entire H1H284 mAb) were injected over a low density anti-mFc captured hANGPTL4(26-148)-mFc (˜68±4 RU) surface, or the surface of amino-coupled hANGPTL4(26-406)-His (R&D Systems) (450 RU) or amino-coupled cynomolgus monkey N-terminal region (amino acid residues 1-130 of SEQ ID NO:490) expressed with an C-terminal hexa-histidine tag (MfANGPTL4(1-130)-His) (1,028 RU). Kinetic analysis was performed to measure ka and kd, and KD values and half-life of antigen/antibody complex dissociation were calculated. The results are shown in Table 4 (H1H268P) and Table 5 (H1H284P).

hANGPTL4(26-148)-mFc [2] = molecular target: T3, hANGPTL4(26-148)-mFc; experiment: as above; assay type: binding; remark: listed apart in the source
MfANGPTL4(1-130)-His = experiment: BIACORE, full mAb or Fab over amino-coupled MfANGPTL4(1-130)-His; assay type: binding, cynomolgus monkey; settings: for Response bound at 50 nM mAb or Fab: amino-coupled 1,028 RU
Protocol: as §1

hANGPTL4(26-406)-His = molecular target: T1, hANGPTL4(26-406)-His; experiment: BIACORE, full mAb or Fab over amino-coupled hANGPTL4(26-406)-His; assay type: binding; settings: for RU bound at 50 nM mAb or Fab: amino-coupled 450 RU
Protocol: as §1

bovine LPL = molecular target: T2, bovine LPL; experiment: Dose-response of ANGPTL4 protein in the LPL assay; assay type: biochemical; settings: full dose-response of ANGPTL4 protein, determined for each experiment
Protocol: Briefly, 2 nM bovine LPL, 0.25 μM human ApoCII (a cofactor of LPL), 2 mg/mL BSA and 1.6 mM CaCl2, were premixed in a 96-well assay plate. Either hANGPTL4-His or hANGPTL4-mFc protein was added to the Apo/LPL mixture to a final concentration of 10 nM and 2 nM, respectively. The Apo/LPL/ANGPTL4 protein mixtures were then added together with serially diluted anti-hANGPTL4 antibodies with a starting concentration of 300 nM (for inhibition of hANGPTL4-His) or 100 nM (for inhibition of hANGPTL4-mFc) and incubated at room temperature for 30 minutes (final volume 50 μl). Following the incubation, 200 μl of reconstituted lipase substrate, 1-trinitrophenyl-amino-dodecanoyl-2-pyrendecanoyl-3-0-hexadecyl-sn-glycerol (LS-A, Progen), was added to the antibody mixture and incubated at 37° C. for two hours. Fluorescence was then measured at 342 nm/400 nm (excitation/emission) using a FlexStation® 3 Microplate Reader (Molecular Devices, CA). Fluorescence is directly proportional to LPL activity. Control I: a rabbit polyclonal antibody specific for hANGPTL4 (BioVendor). […] NT: not tested. […]

[3] = pH 5.75, 25° C., antigen captured 27 ± 0.6 RU
[4] = pH 7.2, 25° C., antigen captured 35 ± 1.9 RU

ka (hANGPTL4(26-148)-mFc [1]; pH 5.75, 25° C.) [M⁻¹ s⁻¹] | kd (hANGPTL4(26-148)-mFc [1]; pH 5.75, 25° C.) [s⁻¹] | ka (hANGPTL4(26-148)-mFc [1]; pH 7.2, 25° C.) [M⁻¹ s⁻¹] | kd (hANGPTL4(26-148)-mFc [1]; pH 7.2, 25° C.) [s⁻¹] | Response bound at 50 nM mAb or Fab (RU) (hANGPTL4(26-148)-mFc [2]; [3]) | Response bound at 50 nM mAb or Fab (RU) (hANGPTL4(26-148)-mFc [2]; [4]) | kd (MfANGPTL4(1-130)-His; pH 5.75, 25° C.) [s⁻¹] | kd (MfANGPTL4(1-130)-His; pH 7.2, 25° C.) [s⁻¹] | ka (hANGPTL4(26-406)-His; pH 5.75, 25° C.) [M⁻¹ s⁻¹] | kd (hANGPTL4(26-406)-His; pH 5.75, 25° C.) [s⁻¹] | RU bound at 50 nM mAb or Fab (hANGPTL4(26-406)-His; pH 5.75, 25° C.) | ka (hANGPTL4(26-406)-His; pH 7.2, 25° C.) [M⁻¹ s⁻¹] | kd (hANGPTL4(26-406)-His; pH 7.2, 25° C.) [s⁻¹] | RU bound at 50 nM mAb or Fab (hANGPTL4(26-406)-His; pH 7.2, 25° C.) | Molecule | ka (MfANGPTL4(1-130)-His; pH 5.75, 25° C.) [M⁻¹ s⁻¹] | Response bound at 50 nM mAb or Fab (MfANGPTL4(1-130)-His; pH 5.75, 25° C.) | ka (MfANGPTL4(1-130)-His; pH 7.2, 25° C.) [M⁻¹ s⁻¹] | Response bound at 50 nM mAb or Fab (MfANGPTL4(1-130)-His; pH 7.2, 25° C.) | also measured
 |  |  |  |  |  |  |  |  |  |  |  |  |  | CC(C)OC(=O)C(C)(C)Oc1ccc(C(=O)c2ccc(Cl)cc2)cc1 [fenofibrate] |  |  |  |  | TG levels reduced (mean) compared to control group on chow diet (humanized ANGPTL4 mice; day 7, H4H268P2 10 mg/kg s.c. day 0, fenofibrate 0.05% (w/w) in chow): ~25%; liver enlargement (liver weight/body weight) compared to control chow diet (humanized ANGPTL4 mice; mice that consumed fenofibrate for 7 days (groups 3 and 4)): 1.8 times
 |  |  |  |  |  |  |  |  |  |  |  |  |  | hANGPTL4(26-148)-mFc: amino acid residues 26-148 of human ANGPTL4 fused in-line to mouse IgG2a (SEQ ID NO:480) (protein) GPVQSKSPRFASWDEMNVLAHGLLQLGQGLREHAERTRSQLSALERRLSACGSACQGTEGSTDLPLAPESRVDPEVLHSLQTQLKAQNSRIQQLFHKVAQQQRHLEKQHLRIQHLQSQFGLLDPGSLEFALERNSGEPRGPTIKPCPPCKCPAPNLLGGPSVFIFPPKIKDVLMISLSPIVTCVVVDVSEDDPDVQISWFVNNVEVHTAQTQTHREDYNSTLRVVSALPIQHQDWMSGKEFKCKVNNKDLPAPIERTISKPKGSVRAPQVYVLPPPEEEMTKKQVTLTCMVTDFMPEDIYVEWTNNGKTELNYKNTEPVLDSDGSYFMYSKLRVEKKNWVERNSYSCSVVHEGLHNHHTTKSFSRTPGK |  |  |  |  | increase of circulating triglycerides as compared to control mice (PBS) (C57BL/6 mice; 25 μg/mouse i.v., 30 minutes post injection): greater than two-fold; total cholesterol, LDL, NEFA-C and HDL across dose groups (C57BL/6 mice; 25, 50, 100, 300 μg per mouse i.v., each time point post-injection): not significantly different
472000 | 0.0016 | 245000 | 0.000202 | 56 | 29 | 0.00619 | 0.00313 | 1.21e+06 | 0.00173 | 33 | 1.11e+06 | 0.000344 | 32 | H1H284P Fab: Fab fragment of H1H284P prepared by papain digestion (antibody, V domains shown) VH: QVQLVESGGGVVQPGRSLRLSCAASGFTFSSYGMHWVRQAPGKGLEWMAVISFDGGNKNNADSVKGRFTISRDNSKNTLYLQMNSLRAEDTAVYYCAKEGDRSGHPYFYYYGLDVWGQGTTVTVS VL: DIQLTQSPSFLSASVGDRVTITCWASQGISSYLAWYQQKPGKAPKLLIYAASTLQSGVPSRFSGSGSETEFTLTISSLQPEDFATYYCQQLHSYPLTFGGGTKVEIK | 724000 | 255 | 310000 | 214 | 
 |  |  |  |  |  |  |  |  |  |  |  |  |  | His-MfANGPTL4 (26-148): cynomolgus monkey ANGPTL4 N-terminal region (residues 26-148) with an N-terminal hexa-histidine tag (SEQ ID NO:488) (protein) MHHHHHHGPVQSKSPRFASWDEMNVLAHGLLQLGQGLREHAERTRSQLNALERRLSACGSACQGTEGSTALPLAPESRVDPEVLHSLQTQLKAQNSRIQQLFHKVAQQQRHLEKQHLRIQRLQSQVGLLD |  |  |  |  | EC50 (bovine LPL): 3.89 nM
174000 | 0.00304 | 300000 | 0.000601 | 20 | 10 | 0.00432 | 0.00171 | 444000 | 0.00657 | 10 | 726000 | 0.0118 | 13 | H1H268P Fab: Fab fragment of H1H268P prepared by papain digestion (antibody, V domains shown) VH: QVQLQESGAGLLKPSETLSLTCTVYGGSFSIHHWTWIRHPPGKGLEWIGEINHRGSTNYNPSLKSRVTISIDTSKNQFSLKLSAVTAADTAVYYCARGLRFLDWLSSYFDYWGQGTLVTVSS VL: DIQMTQSPSSLSASVGDRVTITCRASQGISDYLAWYQQKPGKVPNLLIYAASALQSGVPSRFSGSGSGTDFTLTISSLQPEDVATYYCQNYNTAPLTFGGGTKVEIK | 312000 | 178 | 267000 | 167 | 
